Data on 5 molecules can be found in patent US20200392227A1 (LYVGEN BIOPHARMA, published 2020).

Experiment [1] has as its target T1, human FcRn protein (MednaBio, E1032) (human, UniProt P55899 24-297; P61769 21-119).
T1 construct: Bought; assays at pH 6
Kind of experiment: BLI. A digest of the protocol:
(§1)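 Binding was measured by biolayer interferometry on an Octet Red96 System, with commercial human Fc receptor proteins loaded at 20 μg/mL onto anti-penta-HIS biosensors. Sensors were dipped into an 8-point 1:3 dilution series of test IgG starting at 300 nM in PBS with 0.1% BSA and 0.02% Tween-20. Fcγ receptor assays ran at pH 7.2 and FcRn assays at pH 6. Kd, kon and koff came from global fitting to a 1:1 binding model.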

For experiment [2], the target named is T2, human FcRIIIB protein (MednaBio, E1037) (human, UniProt O75015 17-200).
T2 construct: Bought; also called FcγRIIIB; FcgRIIIB
Kind of experiment: BLI. A digest of the protocol: as §1
For orientation: In BLI a coated tip is dipped into the sample, and binding shifts an interference pattern.

Experiment [3] deals with T3, human FcRIIB/C protein (MednaBio, E1034) (human, UniProt P31994 43-217, limits assumed).
T3 construct: Bought as FcRIIB/C; also called FcγRIIB; CD32B
T3 sequence (looked up): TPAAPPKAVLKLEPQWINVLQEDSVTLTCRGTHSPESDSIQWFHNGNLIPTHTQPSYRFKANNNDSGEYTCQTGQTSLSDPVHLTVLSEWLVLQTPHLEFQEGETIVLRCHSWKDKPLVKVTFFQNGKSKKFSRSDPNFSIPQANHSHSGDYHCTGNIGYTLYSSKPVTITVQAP
Kind of experiment: BLI. A digest of the protocol:
as §1

Experiment [4] addresses T4, human FcRIIIA-V158 protein (MednaBio, E1035) (human, UniProt P08637 17-208).
T4 construct: Bought; also called FcγRIIIA(V); FcgRIIIA(V)
In words: BLI. The essentials: as §1

Experiment [5] concerns the target T5, human FcRIIA protein (MednaBio, E1033) (human, UniProt P12318 34-218, limits assumed).
T5 construct: Bought; also called FcγRIIA
T5 sequence (looked up): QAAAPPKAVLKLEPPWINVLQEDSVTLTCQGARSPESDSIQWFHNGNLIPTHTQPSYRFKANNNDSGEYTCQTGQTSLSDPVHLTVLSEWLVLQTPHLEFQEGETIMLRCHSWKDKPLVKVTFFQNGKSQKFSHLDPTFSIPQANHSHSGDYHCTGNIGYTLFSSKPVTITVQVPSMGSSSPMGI
Kind of experiment: BLI. A digest of the protocol:
as §1

Experiment [6] has as its target T6, human FcRIIIA-F158 protein (MednaBio, E1036) (human, UniProt P08637 17-208).
T6 construct: Bought; also called FcγRIIIA(F)
Kind of experiment: BLI. A digest of the protocol: as §1

Experiment [7] deals with T7, human FcRI protein (MednaBio, E1031) (human, UniProt P12314 16-288, limits assumed).
T7 construct: Bought; loaded on anti-penta-HIS biosensors; also called FcγRI
In words: BLI. A digest of the protocol:
as §1

For experiment [8], the target named is T8, human FcγRIIC expressed on CHO cells (human, UniProt P31995 43-323).
T8 construct: whole, on cells
T8 sequence (looked up): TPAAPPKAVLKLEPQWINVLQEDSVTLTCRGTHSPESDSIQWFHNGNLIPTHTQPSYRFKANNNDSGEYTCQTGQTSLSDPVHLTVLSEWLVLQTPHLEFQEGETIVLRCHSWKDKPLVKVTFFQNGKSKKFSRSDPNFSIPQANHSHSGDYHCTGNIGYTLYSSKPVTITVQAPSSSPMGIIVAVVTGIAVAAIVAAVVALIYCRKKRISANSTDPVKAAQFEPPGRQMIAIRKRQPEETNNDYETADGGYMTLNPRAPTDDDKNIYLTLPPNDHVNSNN
In words: FACS, CHO cells expressing FcγRIIC. As to the method: FIGS. 1A-1W are charts showing binding activity of various IgG variants as indicated to different types of Fcγ receptors expressed on CHO-K1 cells at the various concentrations as indicated. The concentrations of each IgG variant, from left to right, are 0 μg/ml, 0.3 μg/ml, 1 μg/ml, 3 μg/ml, and 10 μg/ml in FIGS. 1A-1C, 1E-J, 1L-1M, 1P-1R, and 1T-1V. For FIGS. 1D, 1K, 10, 1S, and 1w the bars, from left to right, correspond to the following concentrations of IgG variant: 0.3 μg/ml, 1 μg/ml, 3 μg/ml, and 10 μg/ml.
For FACS analysis of the IgG mutants' binding to different FcγRs, FcγR overexpressing CHO cells were harvested using trypsin-EDTA and were suspended in cold staining buffer (3% BSA in PBS). Test IgG mutants, which were diluted in staining buffer, were added into the cells. The mixture was incubated 4° C. for 2 hours, and then washed twice with cold staining buffer and re-suspended in PE-labeled anti-human IgG followed by incubation at 4° C. for 2 hours. The mixture was washed twice with staining buffer and re-suspended in 2% PFA in PBS for FACS.
Background: In flow cytometry, cells or beads pass a laser one at a time.

For experiment [9], the target named is T1, human FcRn protein (MednaBio, E1032). Kind of experiment: BLI. The essentials:
as §1
This is another data set of the same source.

Experiment [10] has as its target T2, human FcRIIIB protein (MednaBio, E1037). In words: BLI. A digest of the protocol: as §1
This is another data set of the same source.

Experiment [11] concerns the target T3, human FcRIIB/C protein (MednaBio, E1034). In words: BLI. The essentials: as §1
The source holds these as a separate data set.

Experiment [12] has as its target T4, human FcRIIIA-V158 protein (MednaBio, …). Kind of experiment: BLI. A digest of the protocol:
as §1
The source holds these as a separate data set.

The target of experiment [13] is T5, human FcRIIA protein (MednaBio, E1033). Kind of experiment: BLI. A digest of the protocol: as §1
The source holds these as a separate data set.

Experiment [14] addresses T6, human FcRIIIA-F158 protein (MednaBio, …). Kind of experiment: BLI. A digest of the protocol: as §1
This is another data set of the same source.

For experiment [15], the target named is T7, human FcRI protein (MednaBio, E1031). In words: BLI. A digest of the protocol:
as §1
This is another data set of the same source.

Read-outs that look alike come from different tables or passages of the source.

T1 sequence (P55899 24-297 limits assumed, form in doubt, chain 1 of 2): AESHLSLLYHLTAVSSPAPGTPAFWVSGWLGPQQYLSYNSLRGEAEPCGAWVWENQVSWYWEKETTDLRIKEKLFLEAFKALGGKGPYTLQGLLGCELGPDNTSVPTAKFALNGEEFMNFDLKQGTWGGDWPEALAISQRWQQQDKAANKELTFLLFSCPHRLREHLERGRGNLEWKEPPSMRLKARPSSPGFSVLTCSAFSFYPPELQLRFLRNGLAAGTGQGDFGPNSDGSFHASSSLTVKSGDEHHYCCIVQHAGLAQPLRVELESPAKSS
T1 sequence (P61769 21-119 limits assumed, form in doubt, chain 2 of 2): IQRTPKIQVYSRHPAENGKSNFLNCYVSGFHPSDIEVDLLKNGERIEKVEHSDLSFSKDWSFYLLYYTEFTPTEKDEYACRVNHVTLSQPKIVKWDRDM
T7 sequence (P12314 16-288 limits assumed): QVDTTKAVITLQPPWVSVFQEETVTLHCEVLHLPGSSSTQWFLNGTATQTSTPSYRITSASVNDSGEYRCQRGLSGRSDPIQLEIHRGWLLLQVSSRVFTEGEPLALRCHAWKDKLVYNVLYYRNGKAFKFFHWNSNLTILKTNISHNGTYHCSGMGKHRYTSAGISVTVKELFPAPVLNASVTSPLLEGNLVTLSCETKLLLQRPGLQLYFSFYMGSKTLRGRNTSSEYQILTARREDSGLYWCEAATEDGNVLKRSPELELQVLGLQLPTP
T6 sequence (P08637 17-208 limits assumed): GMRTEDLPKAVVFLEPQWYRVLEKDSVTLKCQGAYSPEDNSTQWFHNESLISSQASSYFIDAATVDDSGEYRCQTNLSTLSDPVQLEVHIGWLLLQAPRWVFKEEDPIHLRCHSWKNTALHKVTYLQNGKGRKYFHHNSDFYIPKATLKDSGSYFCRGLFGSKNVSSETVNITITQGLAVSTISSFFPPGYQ
T4 sequence (P08637 17-208 F176V): as the sequence (P08637 17-208 limits assumed) above, with F160V counted along it
T2 sequence (O75015 17-200 limits assumed): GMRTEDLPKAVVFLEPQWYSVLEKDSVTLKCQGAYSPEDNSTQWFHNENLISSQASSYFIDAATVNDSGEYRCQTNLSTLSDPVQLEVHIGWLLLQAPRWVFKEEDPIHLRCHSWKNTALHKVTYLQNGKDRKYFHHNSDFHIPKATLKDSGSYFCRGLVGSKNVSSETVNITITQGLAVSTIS

B1: anti-CD137 IgG1 with Fc variant G1m5 (antibody)
heavy: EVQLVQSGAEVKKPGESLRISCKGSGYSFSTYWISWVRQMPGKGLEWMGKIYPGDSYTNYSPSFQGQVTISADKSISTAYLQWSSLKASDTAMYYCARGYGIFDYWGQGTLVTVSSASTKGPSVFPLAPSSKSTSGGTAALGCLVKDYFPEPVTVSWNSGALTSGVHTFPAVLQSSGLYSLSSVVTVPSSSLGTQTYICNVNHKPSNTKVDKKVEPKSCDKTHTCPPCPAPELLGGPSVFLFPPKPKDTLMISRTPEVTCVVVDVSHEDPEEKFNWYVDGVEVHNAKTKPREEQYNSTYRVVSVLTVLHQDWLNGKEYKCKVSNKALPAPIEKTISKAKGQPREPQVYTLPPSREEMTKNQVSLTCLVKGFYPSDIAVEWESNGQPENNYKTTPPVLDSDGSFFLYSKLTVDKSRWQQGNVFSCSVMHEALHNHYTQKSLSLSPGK
light: SYELTQPPSVSVSPGQTASITCSGDNIGDQYAHWYQQKPGQSPVLVIYQDKNRPSGIPERFSGSNSGNTATLTISGTQAMDEADYYCATYTGFGSLAVFGGGTKLTVLGQPKAAPSVTLFPPSSEELQANKATLVCLISDFYPGAVTVAWKADSSPVKAGVETTTPSKQSNNKYAASSYLSLTPEQWKSHRSYSCQVTHEGSTVEKTVAPTECS
notes: copies: 2 + 2
Usually Kd stands for the concentration at which binding is half-saturated. The low end stands for a tighter complex, the high end for a looser complex. Usually koff stands for a measure of how fast the partners let go of each other. Low values mean a long-lived complex, high ones a short-lived complex. As usually defined, the kon is the rate constant with which the complex forms. Higher therefore signals faster complex formation. With B1, the dissociation constant (Kd) came to 22 nM in experiment [1]; 640 nM in experiment [3]; 290 nM in experiment [4]; 670 nM in experiment [5]; 1.6 nM in [7]. Further, the koff was determined as 0.0077 s⁻¹ in [1]; 0.18 s⁻¹ in experiment [3]; 0.073 s⁻¹ in [4]; 0.23 s⁻¹ in experiment [5]; 0.00047 s⁻¹ in [7]. The on-rate (kon) in experiment [1] was 350000 M⁻¹ s⁻¹; in experiment [3], 280000 M⁻¹ s⁻¹; in experiment [4], 250000 M⁻¹ s⁻¹; in [5], 340000 M⁻¹ s⁻¹; in experiment [7] it was 300000 M⁻¹ s⁻¹. Also, the binding result is reported as “no binding (tested: 300 nM)” in experiment [2], “no binding (tested: 300 nM)” in [6] and “binds” in [8].

B2: anti-CD137 IgG1 with Fc variant G1m9 (antibody)
heavy: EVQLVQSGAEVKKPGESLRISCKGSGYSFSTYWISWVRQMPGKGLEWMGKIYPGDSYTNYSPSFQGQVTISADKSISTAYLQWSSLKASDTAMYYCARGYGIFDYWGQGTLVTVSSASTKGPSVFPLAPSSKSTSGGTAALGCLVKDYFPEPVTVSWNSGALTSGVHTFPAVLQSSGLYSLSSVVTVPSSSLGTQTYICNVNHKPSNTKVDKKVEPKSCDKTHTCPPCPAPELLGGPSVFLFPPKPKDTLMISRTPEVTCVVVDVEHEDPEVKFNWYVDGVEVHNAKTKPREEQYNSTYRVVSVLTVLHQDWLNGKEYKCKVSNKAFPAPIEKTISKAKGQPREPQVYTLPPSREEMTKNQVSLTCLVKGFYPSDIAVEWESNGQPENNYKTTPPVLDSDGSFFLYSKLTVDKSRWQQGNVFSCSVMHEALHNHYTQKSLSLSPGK
light: B1 light
notes: copies: 2 + 2
Consider B2, for which the dissociation constant Kd came to 19.1 nM in experiment [1]; 25 nM in [3]; 86 nM in experiment [4]; 680 nM in [5]; 180 nM in experiment [6]; 3.1 nM in experiment [7]. Also, the koff in experiment [1] came to 0.0116 s⁻¹; in experiment [3], 0.0051 s⁻¹; in [4], 0.1 s⁻¹; in experiment [5], 0.13 s⁻¹; in experiment [6], 0.091 s⁻¹; in experiment [7], 0.0016 s⁻¹. Also, the kon in experiment [1] came out at 607000 M⁻¹ s⁻¹; in experiment [3] it was 200000 M⁻¹ s⁻¹; in [4] it was 1.2e+06 M⁻¹ s⁻¹; in experiment [5], 180000 M⁻¹ s⁻¹; in [6] it was 520000 M⁻¹ s⁻¹; in experiment [7] it was 510000 M⁻¹ s⁻¹. For the same molecule, the binding result was “no binding (tested: 300 nM)” in experiment [2] and “binds” in experiment [8].

B3: anti-CD137 IgG1 with Fc variant G1m7 (antibody)
heavy: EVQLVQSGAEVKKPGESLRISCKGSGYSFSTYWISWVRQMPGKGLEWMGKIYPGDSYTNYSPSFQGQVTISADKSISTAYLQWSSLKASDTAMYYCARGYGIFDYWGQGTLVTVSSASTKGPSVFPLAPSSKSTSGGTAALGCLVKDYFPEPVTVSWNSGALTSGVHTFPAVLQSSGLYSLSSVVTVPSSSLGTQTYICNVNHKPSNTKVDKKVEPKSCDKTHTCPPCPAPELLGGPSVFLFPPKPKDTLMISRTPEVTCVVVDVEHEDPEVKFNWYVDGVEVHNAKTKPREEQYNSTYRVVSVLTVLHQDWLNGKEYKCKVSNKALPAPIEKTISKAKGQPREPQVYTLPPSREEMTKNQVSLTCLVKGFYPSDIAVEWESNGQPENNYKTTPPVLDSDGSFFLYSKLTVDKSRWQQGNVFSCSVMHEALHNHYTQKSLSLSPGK
light: B1 light
notes: copies: 2 + 2
B3: the Kd in experiment [1] turned out to be 15 nM; in [3] it was 110 nM; in [4] it was 87 nM; in experiment [5], 290 nM; in experiment [6] it was 140 nM; in [7] it was 2.5 nM. For the same molecule, the koff amounted to 0.01 s⁻¹ in experiment [1]; 0.032 s⁻¹ in [3]; 0.039 s⁻¹ in [4]; 0.11 s⁻¹ in experiment [5]; 0.05 s⁻¹ in experiment [6]; 0.0016 s⁻¹ in experiment [7]. Besides, the on-rate constant (kon) in experiment [1] is 670000 M⁻¹ s⁻¹; in experiment [3] it was 280000 M⁻¹ s⁻¹; in [4], 440000 M⁻¹ s⁻¹; in experiment [5], 380000 M⁻¹ s⁻¹; in [6], 350000 M⁻¹ s⁻¹; in [7], 630000 M⁻¹ s⁻¹. Besides, the binding result in experiment [2] was “no binding (tested: 300 nM)”; in experiment [8], “binds”.

B4: anti-CD137 IgG1 with Fc variant G1m8 (antibody)
heavy: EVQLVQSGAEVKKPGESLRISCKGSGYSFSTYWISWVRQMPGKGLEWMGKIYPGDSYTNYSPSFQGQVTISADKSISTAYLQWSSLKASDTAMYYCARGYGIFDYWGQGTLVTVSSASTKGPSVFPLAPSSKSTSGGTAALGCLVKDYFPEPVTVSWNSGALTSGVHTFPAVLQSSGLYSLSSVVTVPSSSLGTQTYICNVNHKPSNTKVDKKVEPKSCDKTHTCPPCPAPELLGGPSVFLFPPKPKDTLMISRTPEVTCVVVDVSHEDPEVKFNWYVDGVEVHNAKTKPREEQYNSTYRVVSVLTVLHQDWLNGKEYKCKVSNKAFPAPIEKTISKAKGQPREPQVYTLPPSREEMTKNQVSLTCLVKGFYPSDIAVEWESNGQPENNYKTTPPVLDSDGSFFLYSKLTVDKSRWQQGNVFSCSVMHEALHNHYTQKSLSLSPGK
light: B1 light
notes: copies: 2 + 2
Regarding B4, the dissociation constant Kd came out at 16.5 nM in [1]; 420 nM in [3]; 230 nM in experiment [4]; 270 nM in [5]; 260 nM in [6]; 2.5 nM in experiment [7]. In addition, the koff in [1] amounted to 0.0111 s⁻¹; in [3] it was 0.11 s⁻¹; in [4], 0.074 s⁻¹; in experiment [5] it was 0.17 s⁻¹; in [6], 0.057 s⁻¹; in experiment [7], 0.0016 s⁻¹. For the same molecule, the kon worked out at 673000 M⁻¹ s⁻¹ in [1]; 270000 M⁻¹ s⁻¹ in experiment [3]; 320000 M⁻¹ s⁻¹ in experiment [4]; 610000 M⁻¹ s⁻¹ in [5]; 220000 M⁻¹ s⁻¹ in [6]; 630000 M⁻¹ s⁻¹ in [7]. The results for the binding result in experiment [2] and in experiment [8] were “no binding (tested: 300 nM)” and “binds”, respectively.

B5: anti-CD137 IgG1 with Fc variant G1m29 (antibody)
heavy: EVQLVQSGAEVKKPGESLRISCKGSGYSFSTYWISWVRQMPGKGLEWMGKIYPGDSYTNYSPSFQGQVTISADKSISTAYLQWSSLKASDTAMYYCARGYGIFDYWGQGTLVTVSSASTKGPSVFPLAPSSKSTSGGTAALGCLVKDYFPEPVTVSWNSGALTSGVHTFPAVLQSSGLYSLSSVVTVPSSSLGTQTYICNVNHKPSNTKVDKKVEPKSCDKTHTCPPCPAPELLGPSVFLFPPKPKDTLMISRTPEVTCVVVDVEHEDPEVKFNWYVDGVEVHNAKTKPREEQYNSTYRVVSVLTVLHQDWLNGKEYKCKVSNKAFPAPIEKTISKAKGQPREPQVYTLPPSREEMTKNQVSLTCLVKGFYPSDIAVEWESNGQPENNYKTTPPVLDSDGSFFLYSKLTVDKSRWQQGNVFSCSVMHEALHNHYTQKSLSLSPGK
light: B1 light
notes: copies: 2 + 2
As to B5, the Kd in experiment [9] is 17 nM; in experiment [11], 46 nM; in experiment [13] it was 530 nM; in [15] it was 37 nM. Moreover, the dissociation rate constant (koff) in experiment [9] came to 0.013 s⁻¹; in experiment [11], 0.011 s⁻¹; in experiment [13], 0.14 s⁻¹; in experiment [15] it was 0.0098 s⁻¹. For the same molecule, the kon in [9] is 760000 M⁻¹ s⁻¹; in experiment [11], 250000 M⁻¹ s⁻¹; in experiment [13], 260000 M⁻¹ s⁻¹; in experiment [15] it was 260000 M⁻¹ s⁻¹. The binding result in experiment [10], in [12] and in [14] was “no binding (tested: 300 nM)” each time.
